{"source": "patent US7338932", "key": {"[1]": {"system": "MUC7 acceptor peptide (Ac-CPPTPSATTPAPPSSSAPPETTAA)"}, "[2]": {"system": "EA2 acceptor peptide (PTTDSTTPAPTTK)"}, "[3]": {"target": "EA2 acceptor peptide (…) (rat)", "test": "cell-based or functional assay"}, "[4]": {"target": "MUC2 acceptor peptide (…) (human)", "sequence (peptide, as listed by the source)": "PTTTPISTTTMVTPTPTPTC", "test": "cell-based or functional assay"}}, "data": [{"substance": "purified human recombinant GalNAc-T2 (enzyme source of Examples 1-6)", "values": [{"measurement": "GalNAc-T2 activity with UDP-Gal", "setting": "[1]", "value": "Muc7, 13 nmol/min/ml"}, {"measurement": "GalNAc-T2 activity with UDP-Gal", "setting": "[2]", "value": "EA2, 1.5 nmol/min/ml"}]}, {"substance": "human recombinant GalNAc-T3 (enzyme source of Example 6) (from UniProt Q14435 52-633)", "values": [{"measurement": "galactosyltransferase activity with UDP-Gal donor substrate, no inhibitor", "setting": "[3]", "value": 6.3, "unit": "nmol/min/mL"}]}, {"substance": "purified human recombinant GalNAc-T2 (enzyme source of Examples 1-6) (from UniProt Q10471 52-571)", "values": [{"measurement": "galactosyltransferase activity with UDP-Gal donor substrate, no inhibitor", "setting": "[4]", "value": 90, "unit": "nmol/min/mL"}]}]}
